From paper PMC7589778

Molecular target: Human mitochondrial LysRS with a C-terminal HA-tag (human) (UniProt Q15046)
Assay: AlphaScreen or HTRF

| Substance | Kd |
| --- | --- |
| Integrase from HIV-2_ALL with a C-terminal His-tag (enzyme) | 2.4 nM |
| Integrase from HIV-2_TRA with a C-terminal His-tag (enzyme) | 3.5 nM |
